B1: FBXO33 (parent)
chain: RLRGLLRVLRGRPGAGSRRRGRMA
B2: TOR1AIP2 (parent)
chain: SPGHSSAGQEGEDTLRRRLLAPEA

Variants of: B1
Assay: protein stability index of a GFP-peptide fusion (GPS, HEK-293T) (PSI 1-6); higher = more stable
Conditions: c terminus: a fixed tail appended
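Further: lentivirally expressed fusions sorted by FACS into six bins by GFP to DsRed ratio, PSI derived from sequencing read proportions per bin multiplied by bin number.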

Protein stability index of substitutions, site by site:
R1: G 1.84, C 1.2, L 1.59, D 2.92, F 1.53, A 1.7, N 2.01

Variants of: B2
Assay: as above
Conditions: c terminus: a fixed tail appended

Protein stability index, by site and new letter:
L19: V 4.9, H 5.52, Y 4.86, D 5.35, I 3.39, N 5.34, R 4.89, C 4.99, W 4.3, S 5.24, M 3.39, Q 5.33, P 5.29, F 4.73, T 5.55, G 5.45, E 5.46, A 5.4, K 5.54
L20: D 4.7, R 5.26, A 5.64, S 4.95, V 5.21, P 5.15, C 5.49, W 4.73, M 5.01, I 4.94, T 5.33, H 5.29, K 5.38, Q 5.63, Y 4.51, N 5.25, G 5.54, F 3.94, E 4.9
R17: L 3.31, D 5.46, E 4.42, N 4.67, C 4.51, M 3.54, V 3.9, G 5, S 4.71, H 3.85, T 4.58, F 2.09, K 4.76, I 3.81, Q 4.37, W 2.36, P 5.04, A 4.63, Y 2.48
A21: H 5.26, F 4.71, Y 4.38, K 4.89, M 4.19, D 5.37, V 4.86, N 4.9, W 4.16, I 4.51, Q 4.94, G 5.31, R 4.89, L 4.58, C 3.31, P 5.09, S 3.08, E 5.23, T 5.39
R16: W 3.52, Y 4.44, N 5.23, T 5.04, Q 5.34, S 5.63, P 4.9, V 5.51
P22: S 4.92, H 5.27, K 5.46, W 4.84, M 4.93, T 4.47, F 4.92, Q 5.42, R 4.99, E 4.95, G 5.11, I 5.16, L 4.59, A 4.42, Y 4.41, D 5.34, N 5.76, C 4.41, V 4.8
A24: C 4.27, L 3.02, R 4.54, E 5.36, K 4.82, I 4.2, F 3.98, T 4.61, M 2.76, S 4.35, H 4.43, W 2.94, Y 3.42, N 4.83, P 4.94, Q 4.82, D 5.29, V 4.59, G 5.14
E23: M 4.47, Y 3.59, I 4.1, P 5.13, T 4.53, W 3.98, V 4.38, R 4.77, H 4.09, F 3.78, L 3.87, G 4.67, A 4.71, C 4.42, D 4.15, N 4.46, S 4.46, Q 4.59, K 4.95
R18: V 4.14, S 5.01, N 4.98, I 3.07, Q 3.89, D 4.89, W 2.51, T 4.58, A 4.8, P 5.5, H 4.6, K 4.83, Y 2.94, C 4.4, L 2.99, E 5.45, G 5.1, M 3.29, F 2.84
